The values that follow come from a protein production outcome set (Wang et al. 2014).

The data set in a line: label from the status in PepcDB records.

For the sequence “MMDAMTDPITFAATAAGRDAAHPLRDISFGEIGIATERKPDGTIYVRSTTTLTDYPVRITDRLHHFAETAPDRVFMAERNGEGGWRRISYAEMLRAAQTIASALIARGLSAERPVMILSGNSIDHAMVMFGALYAGVAMCPVSPPYSLVSKDYGKLRHIVGLLTPGLIFADDITAFAPAILATVPEDVELAATRGEVKGRKVTSLAELLATPEHPELAAKHEAIGHDTIAKFLLTSGSTGNPKAVINTQRMICANQVMIREAMAFLKDEPPVIVDWLPWNHTFGGNHNIGLTLFNGGSMYIDDGKPTPAGIASTIRNLREIAPTVYFNVPKGYESLLPVLREDQQLRKLFFSRLHAMFFSGASLAAHVWNGLDEVAVAETGARVPMLTGLGATETAPFFMSVTPQTSRSGHVGLPVPGNEAKLVPNNGKLEVRAKGPNITPGYWRAPELTDKAFDEEGFYKLNDALKPVDANDLSRGFDFDGRISEDFKLASGTWVSVGPLRAKFIAACASLVRDVVIAGLDRDYVTALAILDPDGCKLINATLPLEDLAGMAADHLIREAFRERFATLLTQATGSSNRVTRAVLLGEPLSIDKGEITDKGSVNQRAVLEYRASLIADLYADPPPAHVIALELEHHHHHH”, the protein production result is reported as “not failed”. For the sequence “MMDSCIRIAGIIGESIVDGPGIRLVVFAQGCPHHCPGCHNPETHAYEGGKSVAIAEILQRLAMNPLLDGITLSGGEPFAQAAGFALLAQSARQRGFHVMTYSGYTYEELTASSEQNPAWALLLEQTDLLVDGPFQLAERNLLLPFRGSENQRVIDVQESLRQGKVVLASVLEHHHHHH”, the protein production entry is reported as “failed”. As for “MMDSTASRQDLLTAASMRFQNLIQWSGAVLLCALPLGVTLAATGGEPAAVTQVDIAPCLAAAAGDDMDKAKSACADVIDNEKTAKGDLIKALVARGALYARHDQVDRAIADDSRALSLDPTLADVFNARGELWLKKGDKPKAVQDFGAALKLDPNHEKAKANHKAMARELERIGAQMAVAGKPSFNCARAARAVEKAICGNRELADLDREIYGSHLRVIREAQSPAEARKIQREQDDFIARRNSGFGRPGYDLKKAMQDRLQQINGVDGY”, the entry is “failed”; as for “MMDVDHKTNLTLRKYFYTLKSMKFTSITYTLSAVLLLGFSIPLVFAQTPDSGLSADCQMPIPPNLNSVDHFLGMGHFQQDCKKDLSAAVAAFSQAIKLNPQAEEPYYHRANSYAAMGNYQAAVTDYTEVIRQNTGRLGFSTGAYWHRARAYEKLGEKQKAISDLTQLIGNNSSLNAEEYLFRANLYKELGNKESAIADYKIAEKLLQQYADGVFHTGMMDTRYEQMLDQVRNELSSMGVAVTVPKTTTGNILRTIAKTEVERALNLARLQSQHPTVKNFDAQLQDLYKQLANTQPQVESGVVKNLIANAAYEKIDDLKIERSQLLTKYTLDSPIIGVIDSQTSELESLIHRNKF”, “failed”; as for “MMEERANLMHMMKLSIKVLLQSALSLGRSLDADHAPLQQFFVVMEHCLKHGLKVKKSFIGQNKSFFGPLELVEKLCPEASDIATSVRNLPELKTAVGRGRAWLYLALMQKKLADYLKVLIDNKHLLSEFYEPEALMMEEEGMVIVGLLVGLNVLDANLCLKGEDLDSQVGVIDFSLYLKDVQDLDGGKEHERITDVLDQKNYVEELNRHLSCTVGDLQTKIDGLEKTNSKLQEELSAATDRICSLQEEQQQLREQNELIRERSEKSVEITKQDTKVELETYKQTRQGLDEMYSDVWKQLKEEKKVRLELEKELELQIGMKTEMEIAMKLLEKDTHEKQDTLVALRQQLEEVKAINLQMFHKAQNAESSLQQKNEAITSFEGKTNQVMSSMKQMEERLQHSERARQGAEERSHKLQQELGGRIGALQLQLSQLHEQCSSLEKELKSEKEQRQALQRELQHEKDTSSLLRMELQQVEGLKKELRELQDEKAELQKICEEQEQALQEMGLHLSQSKLKMEDIKEVNQALKGHAWLKDDEATHCRQCEKEFSISRRKHHCRNCGHIFCNTCSSNELALPSYPKPVRVCDSCHTLLLQRCSSTAS”, “not failed”.

For “MMETTAGDTLQQFVTAPVRTATYKRLLYLLLAFPLGVAYFVAFTTGSSLGLGLAFTLVGLPVLLVTLVATTGAAGLEARLATVLLDQEVATPPSPRETLDSDDGYLAAVWRFATEPTTWTSVAVVLLKFVYGIVAFVVTITGTALVGTLLAAPFVYDDPGVNYQFGQYAVSTLPEAIGVATVGVAGIWILCNVINVVAAAGGLMTDAFLSVGRERAA”, the protein production entry is “failed”. With “MMGIMSDPITILDSSDSLSRLSSESVGRLVVHRKDDLDIFPVNFVLDYSAEQPRVYFRTAEGTKLFSVNLNSDVLFEVDRFDDAEGWSVVLKGNAYVVRDTEEARHADTLGLKPWLPTLKYNFVRIDVREVSGRAFVFGEEPERY” the entry was “not failed”; with “MMGRVAMLTGSRGLRYATVIALVAALVGGVYVLSSTGNKRTIVGYFTSAVGLYPGDQVRVLGVPVGEIDMIEPRSSDVKITMSVSKDVKVPVDVQAVIMSPNLVAARFIQLTPVYTGGAVLPDNGRIDLDRTAVPVEWDEVKEGLTRLAADLSPAAGELQGPLGAAINQAADTLDGNGDSLHNALRELAQVAGRLGDSRGDIFGTVKNLQVLVDALSESDEQIVQFAGHVASVSQVLADSSANLDQTLGTLNQALSDIRGFLRENNSTLIETVNQLNDFAQTLSDQSENIEQVLHVAGPGITNFYNIYDPAQGTLNGLLSIPNFANPVQFICGGSFDTAAGPSAPDYYRRAEICRERLGPVLRRLTVNYPPIMFHPLNTITAYKGQIIYDTPATEAKSETPVPELTWVPAGGGAPVGNPADLQSLLVPPAPGPAPAPPAPGAGPGEHGGGG”, “failed”. As for “MMIARTLSIFIGTLLLATCSIPTRLNIPTIAITDHPKYKLLLILIDGLRADALEHGQAPQLARLASDGVHARWMTPSYPALTLPNAYTLITGLRPDHHGIVHNTMEDPLLGAFESERQEAISNGRWWGGEPIWVSAEHAGIRSATFLWPGSEASIAGTRPSRWYAYNKHISADTQITQALRWLNERGPDAPRLVILRFEQVNTAGDNFGPDSPQYAAAVNMIDSAIGRLIDSLRQHGKLTDTDVIVVSDQGIAPIPGDHAVPLERIVQLSDVHVVSDGQVLGITPLPGHESKVEAMVLGAHATYDCWRKQALPTHWHYGTHPRIPNIVCQMHEGWNALSAAQITKRNPLQMGGSSGFDPMLPSMRAVFLANGPSFMPNLLLNPINNVDIYPLLARLLGIAMAPNDGNPRALLQALRTSNTANGYTYSKRNALHLEHHHHHH”, the entry is “failed”. For “MMIHMEYYLVVSTIMMFAGIYGFFTRRNTLAILISVELMLNATDINFAVFNRFLFPGELEGYFFALFSIAISAAETAIAIAIMINIYRNIRSIQVKNLDELKW”, the protein production entry was “failed”. In the case of “MMIKASTNEFRFCFKQMNKSQHELVLGWIHQPHINEWLHGDGLSNTIKDLHEFLNDGKPWATHWIAYDNEIPFAYLITSEIEKSEEYPDGAVTLDLFICRLDYIGKGLSVQMIHEFILSQFSDTKIVLINPEISNERAVHVYKKAGFEIIGEFIASWHPVPHYKMKLCIEDLKKQRLSA”, the protein production result is listed as “not failed”. With “MMIVDPKYCSLHPVDLAIVRKVLKITDGNFVITNAEGNLLFKVKDPFFSLHEKRILMDGFGTKVLTLKGKIMTMHDRWLVFRGGSTEEVDLLYTVKRSNMVQITTKLDVFLADNIEQKKCDYRLEGVWLETSCFVYAGDSDIILAQMREKKTMQSVLFGKDNFCLTVNPNVDYAFIASLIVILFHQKDDIYPIESLWKRDITDFIC” the entry was “failed”; with “MMKAYQREFIEFALEKQVLKFGEFTLKSGRKSPYFFNAGLFNTGRDLARLGRFYAAALVDSGIEFDVLFGPAYKGIPIATTTAVALADHHDVDTPYCFNRKEAKNHGEGGNLVGSKLEGRVMLVDDVITAGTAIRESMELIQANKADLAGVLVAIDRQEKGKGELSAIQEVERDFGCAVISIVSLTDLITYLEQQGNNTEHLEAVKAYRAQYGI”, “not failed”; with “MMKETQQWTSKIGFVLAAAGAAVGLGAIWKFPYVAGNGGGGAFFLVFLLLTLFIGMPLLIAEFVIGRSTQKEAVTAYKVLVPNSKLYPWIGRMGVVTCFSVLSFYSVVGGWILLYLYYSVTGSFWNGAADYGQLFGETISNPLSAIGAQFIFMLCTIFVVSKGVEKGIEKASKYMMPLLFILFIAIIVRALTLDGAFAGVEFFLKPDFSKLTADTILYAMGQSFFSLTVGASVMVTYSSYLKKEEHLAKSATSIVSLTVFVTVLAGLAIFPAIFALGVKPTEGPGLLFIVLPAVFAKIPFGQFFFIMFLILFFFATLTSAISMLEIVVASVAKGNEKKRPSASLLIGILIFAVGIPSALSFGIMSDVKIFGKTFFDLVDFSVSNVLLPLGVLAISLFVPNKMSKELLMKELEVTETKGKTLFNIWFFLLRYVIPVTVIIVFLNAIGVFKMFA”, “failed”.

Regarding “MMKILGLIGGMSWESTIPYYRMINQHVKAQLGGLHSAKIILYSVDFHEIEQLQAKGDWQTAAQLLSNAAISLKHAGAEVIVVCTNTMHKVADDIEAACGLPLLHIADATAVQIKQQGIDKIGLLGTRYTMEQGFYRGRLTEKHGIEVITPDDTDREAVNRIIYEELCLGIISETSRDAYRRVIKKLEAQGVQGIIFGCTEITLLVNAQDASVPVFDTTAIHASAAADYALQ”, the protein production result is on record as “not failed”. With “MMKKAGLYIHIPFCLQKCNYCDFFSVRAGRFKNILSGHLSPFVLRLAEDIKIQADKYSINEWDTVYIGGGTPSLLSPDDLYYLSSQIPAAQKNPHREFTVEINPEDLTKDFLSAAVSGGINRFSVGIQSLNDEVLSACKRRGCRKMSLSALELLRSQKGLILSCDLIAGLNKQSLGILKDDIQTLLHFKPEHFSLYALCSNTKLPPEKDDEIAELWSYGKDILEKNSYNKYEVSNFSYKNLYKSIHNEKYWRLEDYIGVGPGAFGSIFFDRKVLHANAHANALRFSAIKNIEKWMTLKNRDEVYEYETIDEKEFIEEAFMMGLRLTEGIDRSFFKSRFGKDISVFAGKTISKWLDRNEAVLTEKRFYLTEKGFLYLNLFLQELFQEIDSLF” the entry was “failed”; with “MMKKHMYRLGLFKALTLALLVLLSAFVPSVLANQSRKPANLDGTTTLQSILSSSHRSEENRQRDKYRHPTQTLSFFGLRPDMTVVELWPGSGWYTEILAPYLAAKGQLIVTNFAPNDSKIPTVVFQQKLATAFQQKLEANKEVFGKIRVALINPPQELTLAPDNSVDMVVTFRNIHNWVNAGYAEQVYAAAYKALKPGGILGVEEHRAKPGISLQESIKTGYMSEDGVIAAVEKVGFKLVGKSEINANPQDTKDYPGGVWALPPTLRQGQKDRQRLVAIGESDRMTLKFIKPEANINSGSNAK”, “failed”; with “MMKMDLKKEVKEEFIRFQRNEKTESIVYERLASIEKDESNRKVLRLISAEEKAHYATLKKYTETDVAPDKLRIAKYYWLARILGITFAIKLMESSEENAHHDYAKYTDYPDLRQLANEEEVHEQKLIGLINEERLEYMGSVVLGLNDALVEFTGALAGFTLALSDSRLIALTGSITGIAAALSMASSEYLSTKSEGGETKHPIKAAIYTGIAYIITVVALVAPFILIENVLIALGVMLAMALVIIALFNYYYSVARGESFRKRFTEMAVLSFSVAGISFLIGYALKTFTGIDA”, “failed”. As for “MMKQNPILITGGTGTVGSRIASRLIKLGYRVRIASRKKGALADAEYVYFNWKYASSFTPALEQVKQIYLVAPVGVFDPAPYVLPFLKEAKRLGAKRVVMQSASVVSENGPVFGALHQAVREFPEWTVLRPSYFMQNFINVQHRMSIQTEGRITTASGEGKLGFIDADDIAETAVRALIDDVPHQTHHILTGPEALSYAEAAEIIGAAAGRRVEHVSISRSELQHKMEAGGLPADYAHFMAKLDEAISHGAEHRVTDTVKRVTGKEPRSLSEFAAAHAAYWTSFWTELEHHHHHH”, the entry is “failed”. As for “MMKTLSPLKASLFAILASSTVLVTTVSAEPSQECDHPRSEFHKRGDRMGHDGMHKMFEGLELTDTQKADIKKLFAEQRAARSDDKPTKEERLARRAEMHALITAATFDETQAKALIGAQQEKRQAQAIERMKMQNQIYNLLTPEQQAKFKARFEAHTGKEPRSLEHHHHHH”, the entry is “failed”.
